Test results taken from the DeepSol protein solubility set.

Experiment: soluble on expression in E. coli; label from the status in PepcDB or PDB records

| Sequence | soluble on expression in E. coli |
| --- | --- |
| MGSDKIHHHHHHMKHGGFSAASEAENISKSKLSRRIIDLENKFNVSLIQRTTRHFKVTDLGQEFYEECCKVIAQVECAENVLLKQKSEPQGLVKVSCPPLMMHFQIRKILNQFLKTYPKVEISLELTSRRVDILHDDIDLAIRTNFEPNEDSNLIVRDVIKTDHCLVASPELLQGRTIKHYSELQDFPSISLGTQKQNYIWHLCNIRNGESVDVPYQPRIKSNDLAGVYYAVMDGLGIADLPFLTVESEIRKGTLVHILPDWKSNIGMLQLVYVSRKGQRLVVEKLIETLIDELRRLPESHEGYLPT | not soluble |
| MDSKILTMFNQGKHEEAIQAAVKAIDAAPDDPKRYAMLATMLISIKALDQAGELLAKARQLFPEDLELQYTAGLFAYAQADFAAAVSWFAKVRTDQTLKNDATYMLALSYQQAGQPTKALAFALTAHDLAPKQLDTALLAADLLMANDVFDAAARVLKPLLATEQPQVLFTYGMALSAAGKDGSHYLNKAKALDPKGYDQKANIVADINRFLRLQEGLEHHHHHH | not soluble |
| MELKNKKWTDEEFHKQREEVLQQWPTGKEVDLQEAVDYLKKIPAEKNFAEKLVLAKKKGITMAQPRAGVALLDEHIELLRYLQDEGGADFLPSTIDAYTRQNRYDECENGIKESEKAGRSLLNGFPGVNFGVKGCRKVLEAVNLPLQARHGTPDSRLLAEIIHAGGWTSNEGGGISYNVPYAKNVTIEKSLLDWQYCDRLVGFYEEQGVHINREPFGPLTGTLVPPSMSNAVGITEALLAAEQGVKNITVGYGECGNMIQDIAALRCLEEQTNEYLKAYGYNDVFVTTVFHQWMGGFPQDESKAFGVIVTATTIAALAGATKVIVKTPHEAIGIPTKEANAAGIKATKMALNMLEGQRMPMSKELETEMAVIKAETKCILDKMFELGKGDLAIGTVKAFETGVMDIPFGPSKYNAGKMMPVRDNLGCVRYLEFGNVPFTEEIKNYNRERLQERAKFEGRDVSFQMVIDDIFAVGKGRLIGRPE | soluble |
| MQSWYLLYCKRGQLQRAQEHLERQAVSCLTPMITLEKMVRGKRTSVSEPLFPNYLFVEFDPEVIHTTTINATRGVSHFVRFGAHPAIVPSSVIHQLSIYKPEGVVDPETPYPGDSVIITEGAFEGLKAIFTEPDGETRSMLLLNLLNKEVKQSVKNTGFRKI | not soluble |
| GPGSMAVGASSRTAQRTPARERRQIIPPDVSGQFRVTTFLSLDAFALQHFTLDDHSATGKEGRMFRAFGVTTWAPRIWDEGVSGVFLDLRGAYNYWKRADDQAQLVFDSLVAWIGALEAERDPTDRFMNLGRILLQAFRMQLMMASDPGIPVFNILARPCTAVHEADTFARTIQIPLERRGTQISLRCQLCHVTCP | not soluble |
| MTTKEFEDTWAYNTIGSPFPDNPVRVKGQQNMYVALWYKFGKPIHGRAWNDNGNVECSFPYNKVELTGARDLGGQIQILTATEQDPTEQFKKTGFWYEWRPYKDRVNDQLLQLVRCGQSTPVIMKTKDGKDLLGYIDMSTEVAAVGVSGKSEQVAGGPIQDMLVLFRNVKAPPKGIKIYDDTWLDLKYRDPFPAARNPIAAGGRKVKSDDGTEMFQYVALWYEHGQPVFGRAYPDSADKTLANFGWGGQENAGAEIGSFQMLVVPDPDILGFEYKWIPYKEAKAGGPFKPLHVGECTPCLLKDANGTERLGNLHMGMEKATAGLAGKDSAVSGPAVGDFLVLCRN | soluble |
| MGSSHHHHHHSSGRENLYFQGMKLATLKDSTRDGKLVVVSKDLTRCSEVGHIARTLQAALDDWAHAGPRLERVAEGIETGAQPTMRFHEHDAASPLPRAFQWADGSAYVNHVELVRKARNAEMPASFWTDPLIYQGGSDSFLGPRDPILMADDAWGIDMEGEAAVIVDDVPMGATLDEAKAAIRLVMLVNDVSLRGLIPGELAKGFGFYQSKPSSAFSPVAVTPEELGEAWDGGKLHLPLHVDLNGEPFGRANAGIDMTFDFPQLIVHAARTRPLSAGTIIGSGTVSNKLEGGPGRPVSEGGAGYSCIAELRMIETIEGGAPKTQFLKFGDVVRIEMKDRTGHSIFGAIEQKVGKYERG | soluble |
| MTLTDISLAQAFISIPQDVIALDLSNNLLGSKSCVDLLVNIADCIPAGVTSLDLSSNGLRLTQVSLVTPKHVTSLNLCFNPLHEISIDGLEWLKDSLAHIQIIYLSYDMVNNMSREQRQAFRAVIPNIQTIILVDKNGKEIGPSHTAKIANLISELGGGNPEVPSLEHHHHHH | not soluble |
| MDNYEKVRVVGRGAFGVCWLCRGKNDASHQKVIIKLINTHGMTEKEENSIQSEVNLLKKVQHPLIIGYIDSFIMDNQLGIVMQYAEGGTLERLINDQRAIKDSNMREYFPEKTVLDYFTQILIALNHMHQKNIVHRDLKPQNILMNRRKTVLKLSDFGISKELGTKSAASTVIGTPNYLSPEICESRPYNQKSDMWSLGCVLYELLQLERAFDGENLPAIVMKITRSKQNPLGDHVSNDVKMLVENLLKTHTDKRPDVSQLLSDPLVLPYLISIHCDLGRIEPPPTDKRKPSASLSSRLRTYPTQSTLRPYSLSSNAPTTHLTQLTPMPSHIDSGFFSSGRTSNQRTQSRSQVHSKY | soluble |
| GMLESVRKEWLEIMDRELLEKARSLINANYISTTLSTVDRNYEVNIAVISVLEMIGDDTIICARFGADKTYANLKETGKGVFMVLLTDNDKSKDGIRVYVELSADLQEGEYFDRIKKRLDNTTYKNFPLKNCLVFKIVKILPVSLLRK | soluble |
| MGSDKIHHHHHHMKHIEDNAGSERKPLAGAAKSVPAVAADKPYHRKNLREDLLRSALELTVERDGPAFSLRELAMREKVSHTAVYRHFSDKASLFAELSSEGFRQLALYQNRTIEAPDLPPLARLEQMGATYVRFAMENVGFFRVMFDVNLAGEWEEARKGERTAFGNLVGLVRQCQSEGDIIDADPRAIATYLVLSPHGLAHFNNIGHLTHLLQTSMTLDQLATQVFRLTLAPFLTKPYSEQDVRALVNSIF | not soluble |
| MGSDKIHHHHHHMQKPCIATPFSSYQETVPSLLQAVGAPGLLSRQSCILIKPNLVNASPPPVTLPVAACEALVAACRRWSKARIVIAEGSGDRDLSTGEIFQRLGYERLARRYDVDLVDLNNAELVELQNPLCEVFPTFMMPRMVMDSFVISAAVLKAHSLAEVTLSMKNMIGVAPPAYYQQGGHWKKSAFHAQMHRSIFELNRYRKPDLAFIDASVGLAEYHLGGPTCEPPVDKLLAGFDPVAVDAAGSELLGIPWQQVEHIRLADGLLGRAGK | not soluble |
| MNYTTEFKLGTDGLDVVPGATNTFEMPEGVIPSANATVYFYSGGMPESATANYTGAGNLWSFTSTNGIDSSAGAIRVEITQGRNFGDDPGLVTATATTRAWNEPPLVTVDQSVSGETKFAFSIPVGKPGNDGISAYAQAHAQGFNGSVDDWLESLRGANGKSAYELAVTQGFQGSSADWLNSLKGATGKSAYEVAVAQGFTGALAEWVESLKGVAGKSAYDIALDAGYKGSHLDWLNSLKGGKGDKGDHGKSAYQVAFDAGFSGTEAEWLESLKAPSAPAVGGYKELANGVLWYCRPRYNTGRCTVPDTGWGAYDYETAEHTTKFVIEDGLFEDHGCYVVPDASNLPTDDLRLRMTRGVNRGIHHAGRMTNRSDLVPPYSATTSYFIDRWAAKFYGWYYVMLSPQESAQFLADTDLEKIEVDVQPVTFSGVDVTNWAPGGTETYFLAKEQGLLVPIYKGASRHTVSATGETIVALWFRVGVYTHRSNIGSDNHSFDGINGEPDGWNLHDVDVKFWSTNVAQGMKFSAKIRN | not soluble |
| GPGSMVACTRLRRTQKVAKQKTETASNSHPRTSFLRRGRSTDCDIGALHVAATRVTLSVSHYATLLEGSVICVCFGFRLAAAAATNQLASSRLYRVPFAPLTSGLTNEKVLLRWSVAMSRKDAERKLTEDDCLTSSQQYDPQLIFYVPLRRKGYQAIDASAFVRCGGLRVVDISGNRLSTLSGLESVAPQLTFLNAAENSLHDIGALVTCAALERCMLEGNKLASVDSLQPLVSLPCLAELVLQRHVPLDDAAIGSGSPEQSSDKLLLLDNPVCRDAVAYREHFLAKMSHVRWVDGVSTYLRASSLAESTTTESHDAKENSTKAIVDAAIRSFQSIRVQMTATVSEETTLRHQLERAADRCKPSTVTVAARTP | not soluble |
| MEDLLPTLPSLDHRDALPNALASPVLPAGQSDAQLVRTWLDTKYAAGLGIRASTRAQYALEAHRLLWYAHALGRPLASWQVADANGYLAFLADPPAHAVGDGRVRQDSPAWRPLRGPLSEASRRQTATIVGGLFEWLVGVEALRVNPFQAVPRARSARGPGSQRRFLEAEQLAAVFDAVEARPAPTLWAQLHKARDRLLLALLFHTGLRASEVTALTWPDFERQRGRHGDFWTVRIREAKGGSDQLVPCDNVMAELARFRQLVGLSPEPRATDTMAVVPAMAGGRQRLAPLTDTLALQRRLSRPVRTRQGLYTIVRQVFEAAAVRLEASGYAEGAANLRAASTHWLRHSHATHLLRAGVPVTDVQRTLRHRDINTTRRYTHEALEDVARSIGGKLPAVLEHHHHHH | not soluble |
| MAHHHHHHMPRKETKKRKRAPSSAKESVSSTDEQGKRGGAFSKFKEFDVSELLQKPQEVPEIQPVVEEQPCSPCDEVVADPPPLTATDTVEATSEEPAAPIPQLIPPEPLKDLPPDEEFVPLPTIQVVPMMNRALEAQSGLLKEPAPPASIQRVTQPGALPPAMPTALMELLSG | soluble |
| PARPFRVSNHDRSSRRGVMASSLQELISKTLDALVIATGLVTLVLEEDGTVVDTEEFFQTLGDNTHFMILEKGQKWMP | soluble |
| MRWVRFFHEVGLEDVPLVGGKNASLGEMIRELSPLGVRVPEGFATTSEAYWHFLEHNGLKEAIARELGELDPEDPKALQRVSRRLRNLILKGEYPQDLREEILEAYRRLSEEAVEEEIPVAVRSSATAEDLLTASFAGQQESFLYVQGEADLLLHVKRAMASLFTARAISYRAHMGFDHLKVALSVGVQRMVRADDAASGVIFTLDPDTGHRGFVYLTAIYGLGENIVQGRVIPDGYYVHKETFREGFRAVVYRRLGAKELTLAFDPREGRLKNRPTPLYLRNRFALRDEEVLLLADWAMKIEDHYSKKRGSPTPMDIEWAKDGPTGELFVLQARPETVHSQKTPVLRVFRLLKRGEVLAEGLAVGEAIAMGRARVLKDPKEMDRFQEGEVLVTETTNPDWEPIMKKAAAIVTERGGRTSHAAIVARELGVPAVVGAVGATRSVPEGEEVTVSCAEGERGVVYRGRLPFEVEEIRPETLPRTRTRILVNVGTPEEALRTSLLPTDGVGLLRMEFVFASHVRVHPLALTRFETLPKEVRRQVEEVTEAYPDKRAYFVETLSQGIGLIAAAFYPRPVLLRFSDFKTNEYARLLGGHLFEPKEENPMLGWRGASRYYHPDYKEGFLLEVAAVRRVREEMGLKNLMVMVPFCRTPEEGEKVLEVMAEGGLRREEGGLEVHVMAEIPSNVLEAEAFAELFDGFSIGSNDLTQLALGLDRDSERVAHLFDERRETVKRLAAMLIEKAHAKGKKVGICGQAPSDYPEFAAFLVERGIDSLSLNPDALLRTVREVAEVERRLGIG | soluble |
| MRCMTLPAYDIAILGAGPVGRVLALLLARLTPQPQRIALLQGGAGLPPTPAGTLGPAADPRVLALNHGSRVLLESLRAWPAHAAEIRHIHVSQRGRLGRTVIDREDFDVPQLGNVVAYAALHAQLEQAVQDCGVTVLSGPPARVDGQDGEGLTVRQGDAALHCRLAVQCDGAGGSDVRRDYAQHAVLTSAHATLPRSGWAWERFTNEGPLAMLPHPQTPEAYSVVWCCAPPRAQRLAGLDDEAFSRELTEAFGTRLGRLRSAAPRHVFPLELKARHAQAHGRLATIGNAAQTLHPVAGQGLNLGLRDAAQLAHALPDWLAAPQADPSPLLAAFARARLADRWVTAGLTDLMPRIFATGLAPVEHACGLALLGLDIAAPLRAPLARHLLQGLRV | not soluble |
